# Measured values as given in paper PMC8178248.
# Several values for one entry are separate records, joined by “and”; a condition that tells them apart may be missing. Identical values can stand only once.
# Tests used:
# [1] = molecular target: DrdV restriction-modification enzyme (Deinococcus wulumuqiensis 479); test: SEC
# [2] = molecular target: DrdV restriction-modification enzyme (Deinococcus wulumuqiensis 479); test: cryo-EM structure
# [3] = molecular target: DrdV restriction-modification enzyme (Deinococcus wulumuqiensis 479); test: cryo-EM structure; remark: listed apart in the source
# [4] = molecular target: DrdV restriction-modification enzyme (Deinococcus wulumuqiensis 479); test: negative stain EM
substance,measurement,setting,value
DrdV restriction-modification enzyme,stoichiometry N,[1],4
same,stoichiometry N,[2],3 and 4
same,stoichiometry N,[3],2
same,stoichiometry N,[4],4
